This experiment deals with Burkholderia pseudomallei N-type ATPase c-subunit (atpE), assembled into the c17 rotor ring, expressed alone in E. coli (Burkholderia pseudomallei). The experiment can be described thus: cryo-EM structure.

This is an account of results in publication PMC5376962.

Regarding “Burkholderia pseudomallei N-type ATPase c-subunit (atpE), assembled into the c17 rotor ring, expressed alone in E. coli (natural protein)”, the stoichiometry N (commonly a count of units in the complex or per binding partner) is 17.
